Data: patent US20200392251A1 (University of California, published 2020)

Legend:
[1] = molecular target: human β-secretase 1 (BACE1), extracellular/catalytic domain (human, UniProt P56817 46-457, limits assumed); experiment: cell-based or functional assay
[2] = molecular target: human MMP-12 catalytic domain mutant D4 (cdMMP-12 D4) (human); experiment: cell-based or functional assay
[3] = molecular target: T1, human MMP-12 catalytic domain wild type (cdMMP-12 wt) (human, UniProt P39900 106-263); experiment: cell-based or functional assay
T1 sequence (P39900 other isoform, or with tags, fused parts or gaps limits assumed): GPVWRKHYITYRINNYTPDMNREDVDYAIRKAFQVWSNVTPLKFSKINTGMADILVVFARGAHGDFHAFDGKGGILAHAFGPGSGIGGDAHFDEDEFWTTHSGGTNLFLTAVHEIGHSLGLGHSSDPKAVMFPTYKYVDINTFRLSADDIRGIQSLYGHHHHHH

[4] = molecular target: T2, catalytic domain of human MMP-14 (cdMMP-14) (human, UniProt P50281 114-320); experiment: bio-layer interferometry
T2 construct: range 114-320; Produced active in E. coli periplasm; biotinylated for BLI/ELISA

[5] = molecular target: T2, catalytic domain of human MMP-14 …; experiment: FRET peptide inhibition assay
Procedure: (§1) To calculate inhibition constants (KIs), data were fit with the equations for slow tight-binding inhibitors. The inhibition type of the Fabs was determined using the initial velocities of cdMMP-12 D4 as a function of substrate concentration (250-2000 nM) at various Fab concentrations (31-500 nM). The values of Vₘₐₓ and Kₘ were derived from linearization in accordance with the Lineweaver-Burk equation.

[6] = molecular target: T3, human MMP-12 catalytic domain mutant D4 (cdMMP-12 D4) (human); experiment: FRET peptide (M-2350) inhibition assay
T3 construct: PROSS-designed expression-optimised mutant; Cytoplasmically expressed in E. coli, purified on Ni-NTA; biotinylated for ELISA/BLI; also called cdMMP-12 mutant D4; modified D4
T3 sequence (chain, as listed by the source mutant limits assumed): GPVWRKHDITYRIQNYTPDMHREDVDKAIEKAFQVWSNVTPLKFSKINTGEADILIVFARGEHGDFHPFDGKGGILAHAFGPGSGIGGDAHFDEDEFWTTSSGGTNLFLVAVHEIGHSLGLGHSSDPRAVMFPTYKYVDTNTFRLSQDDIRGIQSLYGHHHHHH
Procedure: as §1

[7] = molecular target: T2, catalytic domain of human MMP-14 …; experiment: bio-layer interferometry; reference cdMMP-12 wt
[8] = molecular target: T2, catalytic domain of human MMP-14 …; experiment: FRET peptide inhibition assay; reference cdMMP-12 mutant D4
Procedure: as §1

[9] = molecular target: T3, human MMP-12 catalytic domain mutant D4 …; experiment: direct ELISA; biotinylated cdMMP on streptavidin plate, Fab titrated, anti-Fab-HRP
Procedure: (§2) On streptavidin coated ELISA plates, 5 μg/mL biotinylated cdMMPs were immobilized and incubated with two-fold serially diluted purified Fabs. Bound Fabs were detected with anti-Fab-HRP (Sigma-Aldrich), and signals were developed by TMB substrate (Thermo Scientific) and measured using a microplate reader (BioTek). […] Bound Fabs were detected using anti-Fab-HRP. For bio-layer interferometry (using ForteBio BLItz), biotinylated cdMMP-12 D4/wt was loaded onto streptavidin biosensors. After washing to establish baselines, 50, 100, or 200 nM of Fabs were associated with immobilized cdMMP-12 D4/wt for 200 sec, then dissociated into 50 mM HEPES, 150 mM NaCl pH 7.5 for 120 sec. Averages of measured kₒₙ and koff values were determined for KD calculations.

[10] = molecular target: T1, human MMP-12 catalytic domain wild type …; experiment: as above
Procedure: as §2

[11] = molecular target: T3, human MMP-12 catalytic domain mutant D4 …; experiment: bio-layer interferometry (BLItz); biotinylated cdMMP-12 on streptavidin sensor, 50/100/200 nM Fab
Procedure: as §2

[12] = molecular target: T1, human MMP-12 catalytic domain wild type …; experiment: as above
Procedure: as §2

[13] = molecular target: T3, human MMP-12 catalytic domain mutant D4 …; experiment: bio-layer interferometry (ForteBio BLItz), biotinylated cdMMP-12 D4 on streptavidin biosensor, Fab at 50, 100 and 200 nM [panel A, LH11]
Procedure: as §2

[14] = molecular target: T1, human MMP-12 catalytic domain wild type …; experiment: bio-layer interferometry (ForteBio BLItz), biotinylated cdMMP-12 wt on streptavidin biosensor, Fab at 50, 100 and 200 nM [panel B, LH11]
Procedure: as §2

[15] = molecular target: T3, human MMP-12 catalytic domain mutant D4 …; experiment: bio-layer interferometry (ForteBio BLItz), biotinylated cdMMP-12 D4 on streptavidin biosensor, Fab at 50, 100 and 200 nM [panel A, LG4]
Procedure: as §2

[16] = molecular target: T1, human MMP-12 catalytic domain wild type …; experiment: bio-layer interferometry (ForteBio BLItz), biotinylated cdMMP-12 wt on streptavidin biosensor, Fab at 50, 100 and 200 nM [panel B, LG4]
Procedure: as §2

[17] = molecular target: T3, human MMP-12 catalytic domain mutant D4 …; experiment: bio-layer interferometry (ForteBio BLItz), biotinylated cdMMP-12 D4 on streptavidin biosensor, Fab at 50, 100 and 200 nM [panel A, LH6]
Procedure: as §2

[18] = molecular target: T1, human MMP-12 catalytic domain wild type …; experiment: bio-layer interferometry (ForteBio BLItz), biotinylated cdMMP-12 wt on streptavidin biosensor, Fab at 50, 100 and 200 nM [panel B, LH6]
Procedure: as §2

[19] = molecular target: T2, catalytic domain of human MMP-14 …; experiment: FRET peptide inhibition assay; KI=IC50/(S/Km+1)
Procedure: (§3) For inhibition tests, 1 μM Fabs were 2-fold serially diluted into protease specific assay buffer and incubated with 1-10 nM proteases for 30 min at room temperature. […] Inhibition percentages at given concentrations were calculated by comparing the initial reaction rates in the presence or absence of inhibitor. […] Vₘₐₓ and Kₘ at various Fab concentrations were measured to determine the inhibition type. FRET inhibition assays were also used for selectivity tests of isolated Fabs with the relevant proteases.

[20] = molecular target: T2, catalytic domain of human MMP-14 …; experiment: biolayer interferometry; biotinylated protease on streptavidin sensor, Fab in solution
Procedure: (§4) Binding kinetics of produced antibodies towards associated protease targets were analyzed by using biolayer interferometry (ForteBio). For Fabs, biotinylated proteases were immobilized on streptavidin biosensors, and Fab binding to the sensors in absence of protease was monitored as backgrounds.

[21] = molecular target: T2, catalytic domain of human MMP-14 …; experiment: enzyme inhibition assay with FRET peptide substrate (M-2350), Fab titrated on cdMMP-14 [panel 2B4]
Procedure: as §3

[22] = molecular target: T2, catalytic domain of human MMP-14 …; experiment: bio-layer interferometry (ForteBio), biotinylated protease on streptavidin biosensor, Fab in solution [panel 2B4]
Procedure: as §4

[23] = molecular target: T2, catalytic domain of human MMP-14 …; experiment: enzyme inhibition assay with FRET peptide substrate (M-2350), Fab titrated on cdMMP-14 [panel 2B12]
Procedure: as §3

[24] = molecular target: T2, catalytic domain of human MMP-14 …; experiment: bio-layer interferometry (ForteBio), biotinylated protease on streptavidin biosensor, Fab in solution [panel 2B12]
Procedure: as §4

[25] = molecular target: T2, catalytic domain of human MMP-14 …; experiment: enzyme inhibition assay with FRET peptide substrate (M-2350), Fab titrated on cdMMP-14 [panel 1A5]
Procedure: as §3

[26] = molecular target: T2, catalytic domain of human MMP-14 …; experiment: bio-layer interferometry (ForteBio), biotinylated protease on streptavidin biosensor, Fab in solution [panel 1A5]
Procedure: as §4

human β-secretase 1 (BACE1), extracellular/catalytic domain, sequence (P56817 46-457 limits assumed, form in doubt): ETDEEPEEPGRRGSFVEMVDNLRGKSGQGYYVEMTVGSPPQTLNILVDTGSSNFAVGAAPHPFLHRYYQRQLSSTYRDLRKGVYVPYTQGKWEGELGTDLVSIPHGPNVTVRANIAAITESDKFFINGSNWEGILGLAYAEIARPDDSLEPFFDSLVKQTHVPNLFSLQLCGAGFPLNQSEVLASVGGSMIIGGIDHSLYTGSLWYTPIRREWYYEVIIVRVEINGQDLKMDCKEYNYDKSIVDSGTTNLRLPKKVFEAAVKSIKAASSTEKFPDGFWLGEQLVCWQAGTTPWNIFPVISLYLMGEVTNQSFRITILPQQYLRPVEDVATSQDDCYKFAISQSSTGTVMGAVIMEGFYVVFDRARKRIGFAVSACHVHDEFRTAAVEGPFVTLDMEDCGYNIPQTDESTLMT

| Inhibition, Elastin-FITC IC50 [2] [nM] | Inhibition, Elastin-FITC IC50 [3] [nM] | Kd [4] [nM] | Ki [6] [nM] | fold (KD compared with cdMMP-12 wt) [7] [fold] | EC50 [9] [nM] | EC50 [10] [nM] | Kd [11] [nM] | Kd [12] [nM] | Ki [19] [nM] | Kd [20] [nM] | also measured | Binder |
| --- | --- | --- | --- | --- | --- | --- | --- | --- | --- | --- | --- | --- |
| – | – | – | – | – | – | – | – | – | – | – | apparent IC50 of Aβ40 production, HEK293 cells expressing APP [1]: 330 nM | anti-BACE1 IgG B2B2 (antibody, V domains shown) VH: EVQLVESGGGLVQPGGSLRLSCAASGFNISSYYMHWVRQAPGKGLEWVASIYSSYGYTYYADSVKGRFTISADTSKNTAYLQMNSLRAEDTAVYYCARYWGYYAWFGSHPWAYGAFDYWGQGTLVTVSS VL: DIQMTQSPSSLSASVGDRVTITCRASQSVSSAVAWYQQKPGKAPKLLIYSASSLYSGVPSRFSGSRSGTDFTLTISSLQPEDFATYYCQQYGYYLITFGQGTKVEIKR |
| 18 | 23 | 780 | 75 | 10 | 100 | 140 | 38 | 75 | – | – | Inhibition, Fibronectin IC50 [3]: 510 nM; Ki [5]: 9600 nM; fold (KI compared with cdMMP-12 mutant D4) [8]: 130 fold; koff [13]: 0.0035 s⁻¹; kon [13]: 92000 M⁻¹ s⁻¹; koff [14]: 0.0032 s⁻¹; kon [14]: 43000 M⁻¹ s⁻¹ | anti-MMP-12 Fab LH11 (Fab, V domains shown, Fab from a synthetic human Fab library with long CDR-H3s, produced in E. coli periplasm; also called Clone LH11) VH: EVQLVESGGGLVQPGGSLRLSCAASGFNLSYYSMHWVRQAPGKGLEWVAYIYPYYGSTYYADSVKGRFTISADTSKNTAYLQMNSLRAEDTAVYYCARFLLSIGKLFVGDGSILHVWL VL: DIQMTQSPSSLSASVGDRVTITCRASQSVSSAVAWYQQKPGKAPKLLIYSASSLYSGVPSRFSGSRSGTDFTLTISSLQPEDFATYYCQQAYYGYLFTFGQGTKVEIKR |
| 210 | 350 | 640 | 76 | 9 | 97 | 180 | 37 | 71 | – | – | koff [15]: 0.0041 s⁻¹; kon [15]: 110000 M⁻¹ s⁻¹; koff [16]: 0.0038 s⁻¹; kon [16]: 54000 M⁻¹ s⁻¹ | anti-MMP-12 Fab LG4 (Fab, V domains shown, Fab from a synthetic human Fab library with long CDR-H3s, produced in E. coli periplasm; also called Clone LG4) VH: EVQLVESGGGLVQPGGSLRLSCAASGFNLYYSYMHWVRQAPGKGLEWVASISSYYGYTSYADSVKGRFTISADTSKNTAYLQMNSLRAEDTAVYYCARSPIVYYELFMFIDMGAQGWKYGMDYWGQGTLVTVSS VL: DIQMTQSPSSLSASVGDRVTITCRASQSVSSAVAWYQQKPGKAPKLLIYSASSLYSGVPSRFSGSRSGTDFTLTISSLQPEDFATYYCQQTFYPFTFGQGTKVEIKR |
| 61 | 1700 | 480 | 91 | 1.1 | 290 | ~1000 | 510 | 430 | – | – | Ki [5]: 4700 nM; fold (KI compared with cdMMP-12 mutant D4) [8]: 52 fold; koff [17]: 0.011 s⁻¹; kon [17]: 22000 M⁻¹ s⁻¹; koff [18]: 0.0065 s⁻¹; kon [18]: 15000 M⁻¹ s⁻¹ | anti-MMP-12 Fab LH6 (Fab, V domains shown, Fab from a synthetic human Fab library with long CDR-H3s, produced in E. coli periplasm; also called Clone LH6) VH: EVQLVESGGGLVQPGGSLRLSCAASGFNLSYSYMHWVRQAPGKGLEWVASIYPSYGSTYYADSVKGRFTISADTSKNTAYLQMNSLRAEDTAVYYCARDLEESLPKRARTAVSKELESVPYVMDYWGQGTLVTVSS VL: DIQMTQSPSSLSASVGDRVTITCRASQSVSSAVAWYQQKPGKAPKLLIYSASSLYSGVPSRFSGSRSGTDFTLTISSLQPEDFATYYCQQSSHYASPPITFGQGTKVEIKR |
| – | – | – | – | – | – | – | – | – | 98 | 66 | IC50 [21]: 110 nM; koff [22]: 0.00079 s⁻¹; kon [22]: 12000 M⁻¹ s⁻¹ | anti-MMP-14 Fab 2B4 (Fab, V domains shown, Fab from a synthetic human Fab library, produced in E. coli periplasm; also called Clone 2B4) VH: EVQLVESGGGLVQPGGSLRLSCAASGFNLYSSYIHWVRQAPGKGLEWVASIYSSYSSTYYADSVKGRFTISADTSKNTAYLQMNSLRAEDTAVYYCARSDSAVYSVRRMGSSGLAAYAMDYWGQGTLVTVSS VL: DIQMTQSPSSLSASVGDRVTITCRASQSVSSAVAWYQQKPGKAPKLLIYSASSLYSGVPSRFSGSRSGTDFTLTISSLQPEDFATYYCQQYSYGYSSLITFGQGTKVEIKR |
| – | – | – | – | – | – | – | – | – | 120 | 76 | IC50 [23]: 140 nM; koff [24]: 0.0053 s⁻¹; kon [24]: 70000 M⁻¹ s⁻¹ | anti-MMP-14 Fab 2B12 (Fab, V domains shown, Fab from a synthetic human Fab library, produced in E. coli periplasm; also called Clone 2B12) VH: EVQLVESGGGLVQPGGSLRLSCAASGFNIYYSSMHWVRQAPGKGLEWVAYIYSSSSYTYYADSVKGRFTISADTSKNTAYLQMNSLRAEDTAVYYCARDCCSCVFSQSAGITLACVYVMDYWGQGTLVTVSS VL: DIQMTQSPSSLSASVGDRVTITCRASQSVSSAVAWYQQKPGKAPKLLIYSASSLYSGVPSRFSGSRSGTDFTLTISSLQPEDFATYYCQQWGPHYAPITFGQGTKVEIKR |
| – | – | – | – | – | – | – | – | – | 150 | 57 | IC50 [25]: 170 nM; koff [26]: 0.0025 s⁻¹; kon [26]: 44000 M⁻¹ s⁻¹ | anti-MMP-14 Fab 1A5 (Fab, V domains shown, Fab from a synthetic human Fab library, produced in E. coli periplasm; also called Clone 1A5) VH: EVQLVESGGGLVQPGGSLRLSCAASGFNLYYYYMHWVRQAPGKGLEWVAYIYPYSGSTYYADSVKGRFTISADTSKNTAYLQMNSLRAEDTAVYYCARLDFLMRDIYYDLGGGALGWLIKYAMDYWGQGTLVTVSS VL: DIQMTQSPSSLSASVGDRVTITCRASQSVSSAVAWYQQKPGKAPKLLIYSASSLYSGVPSRFSGSRSGTDFTLTISSLQPEDFATYYCQQYSGPYPITFGQGTKVEIKR |
